Assay results reported in patent US20240150451A1 (Janssen / Centocor, published 2024).
Where a chain is given by its changes, count along the chain named.

T1: Tau peptide Start 413 Stop 432
T1 peptide: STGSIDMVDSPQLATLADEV

T2: Tau peptide Start 3 Stop 22 (Synthetic linear peptide immobilised on a Pepscan array; the attachment to the array cannot be carried by the letters.)
T2 peptide: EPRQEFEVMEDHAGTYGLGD

T3: Tau peptide Start 422 Stop 441
T3 peptide: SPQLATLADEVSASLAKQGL

T4: Tau peptide Start 417 Stop 436
T4 peptide: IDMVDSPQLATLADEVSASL

T5: Tau peptide Start 411 Stop 430
T5 peptide: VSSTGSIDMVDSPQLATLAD

T6: Tau peptide Start 421 Stop 440
T6 peptide: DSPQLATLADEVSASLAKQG

T7: Tau peptide Start 419 Stop 438
T7 peptide: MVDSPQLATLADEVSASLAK

T8: Tau peptide Start 415 Stop 434
T8 peptide: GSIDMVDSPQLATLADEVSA

B1: PT53 monoclonal antibody (recombinant, mouse IgG2a/kappa) (antibody, V domains shown)
VH: EVKLMESGGGLVQPGASLRLSCAASGFTFTDYYMSWVRQPPGKAPEWLALIRNKANGYTTKYAASVKGRFTISRDNSQNILYLQMNTLRAEDSATYYCVKAVWFAYWGQGTLVTVSA
VL: DIVITQDELSNPVTSGESVSISCRSSKSLLYKDGKTYLNWFLQRPGQSPQLLIYLMSTRASGVSDRFSGSGSGTDFTLEISRVKAEDVGVYYCLQLVEYPYTFGGGTKLEIKR
notes: also called PT50/PT53
B2: PT81 monoclonal antibody (recombinant, mouse IgG2a/kappa) (antibody, V domains shown)
VH: QVQLQQPGAELVRPGASVILSCKASGYTFTNSWIHWVKQRPGRVLEWIGRIDPNSGGTRYNENFKSKATLTVDKPSSTAYMQLSSLTSEDSAVYFCSRGVLHDYWGQGTTLTVSS
VL: B1 VL with G69V, K84Q, L94Q

Key:
[1] = target: Tau peptide Start 1 Stop 20 (Synthetic linear peptide immobilised on a Pepscan array; the attachment to the array cannot be carried by the letters.); assay: Pepscan ELISA on an array of linear 20-mer Tau 441 peptides; design: peptide ELISA signal (no name or unit printed): unit not given here
From the text: (§1) An amino functionalized polypropylene support was obtained by grafting with a proprietary hydrophilic polymer formulation, followed by reaction with t-butyloxycarbonyl-hexamethylenediamine (BocHMDA) using dicyclohexylcarbodiimide (DCC) with N-hydroxybenzotriazole (HOBt), and subsequent cleavage of the Boc-groups using trifluoroacetic acid (TFA). Standard Fmoc-peptide synthesis was used to synthesize peptides on the amino-functionalized solid support by custom modified JANUS liquid handling stations (Perkin Elmer). Synthesis of structural mimics was done using Pepscan's proprietary Chemically Linked Peptides on Scaffolds (CLIPS) technology. CLIPS technology allows to structure peptides into single loops, double loops, triple loops, sheet-like folds, helix-like folds, and combinations thereof. CLIPS templates are coupled to cysteine residues. The side-chains of multiple cysteines in the peptides are coupled to one or two CLIPS templates. For example, a 0.5 mM solution of the P2 CLIPS (2,6-bis(bromomethyl)pyridine) is dissolved in ammonium bicarbonate (20 mM, pH 7.8)/acetonitrile (1:3 (v/v)). This solution is added onto the peptide arrays. The CLIPS template will bind to side-chains of two cysteines as present in the solid-phase bound peptides of the peptide-arrays (455 wells plate with 3 μl wells). The peptide arrays are gently shaken in the solution for 30 to 60 minutes while completely covered in solution. Finally, the peptide arrays are washed extensively with excess of H₂O and sonicated in disrupt-buffer containing 1% SDS/0.1% beta-mercaptoethanol in PBS (pH 7.2) at 70° C. for 30 minutes, followed by sonication in H₂O for another 45 minutes. The T3 CLIPS carrying peptides were made in a similar way but now with three cysteines.
(§2) The binding of antibodies (recombinantly expressed as IgG2a) to each of the synthesized peptides was tested in a pepscan-based ELISA. The peptide arrays were incubated with primary antibody solution (overnight at 4° C.). After washing, the peptide arrays were incubated with a 1/1000 dilution of an appropriate antibody peroxidase conjugate (SBA; Table 4) for one hour at 25° C. After washing, the peroxidase substrate 2,2′-azino-di-3-ethylbenzthiazoline sulfonate (ABTS) and 20 μl/ml of 3 percent H₂O₂ were added. After one hour, the color development was measured.

[2] = target: T1, Tau peptide Start 413 Stop 432; assay: as above; design: peptide ELISA signal (no name or unit printed): unit not given here
From the text: as §1, §2

[3] = target: T2, Tau peptide Start 3 Stop 22; assay: as above; design: peptide ELISA signal (no name or unit printed): unit not given here
From the text: as §1, §2

[4] = target: T3, Tau peptide Start 422 Stop 441; assay: as above; design: peptide ELISA signal (no name or unit printed): unit not given here
From the text: as §1, §2

[5] = target: T4, Tau peptide Start 417 Stop 436; assay: as above; design: peptide ELISA signal (no name or unit printed): unit not given here
From the text: as §1, §2

[6] = target: T5, Tau peptide Start 411 Stop 430; assay: as above; design: peptide ELISA signal (no name or unit printed): unit not given here
From the text: as §1, §2

[7] = target: T6, Tau peptide Start 421 Stop 440; assay: as above; design: peptide ELISA signal (no name or unit printed): unit not given here
From the text: as §1, §2

[8] = target: T7, Tau peptide Start 419 Stop 438; assay: as above; design: peptide ELISA signal (no name or unit printed): unit not given here
From the text: as §1, §2

[9] = target: T8, Tau peptide Start 415 Stop 434; assay: as above; design: peptide ELISA signal (no name or unit printed): unit not given here
From the text: as §1, §2

[10] = target: T9, recombinant full-length tau 2N4R (control tau) (human, UniProt P10636 2-758); assay: direct ELISA, 10 ng/well coated control tau, hybridoma screening
T9 construct: also called recombinant WT (2N4R) tau; Rec; Tau
Description: Obtained hybridomas were seeded in 96-well plates and screened after 10 days in a direct ELISA on 25 ng/well coated PHF-tau as described below. Positive cells were tested for cross-reactivity on 10 ng/well coated with control tau (SEQ ID NO: 51) expressed in E. Coli BL21 cells and purified by heat treatment and ammonium sulphate precipitation. […] PT/66, PT/69 and hTau/60 were prioritized for V-region cloning and humanization.

Chain of Tau peptide Start 1 Stop 20 (Synthetic linear peptide immobilised on a Pepscan array; the attachment to the array cannot be carried by the letters.) (peptide, as listed by the source limits assumed): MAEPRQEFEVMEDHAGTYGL

Binder	peptide ELISA signal (no name or unit printed) [1]	binding result [2]	peptide ELISA signal (no name or unit printed) [2]	peptide ELISA signal (no name or unit printed) [3]	peptide ELISA signal (no name or unit printed) [4]	peptide ELISA signal (no name or unit printed) [5]	peptide ELISA signal (no name or unit printed) [6]	peptide ELISA signal (no name or unit printed) [7]	peptide ELISA signal (no name or unit printed) [8]	binding result [9]	peptide ELISA signal (no name or unit printed) [9]	binding result [10]
B1	38	no binding	38	44	2930	637	29	2880	2090	no binding	40	binds
B2	43	no binding	30	45	2920	2800	31	2900	2900	no binding	78	binds
